This note sets out measurements from US20220226486A1 (SYNTAB THERAPEUTICS, published 2022).

Ends that are not written are not given here.

The target of the test is T1, αvβ6 Integrin (human, UniProt P06756 31-1048; P18564 22-788).
T1 construct: whole, on cells; also called αvβ6 Integrin surface antigen
Briefly: flow cytometry, 10 nM biotinylated binder on human tumor cell lines, Streptavidin-PerCP-Cy5.5. How it is done: The binding capability of peptides or peptidomimetics, of synthetic compounds according to the invention to different cell lines displaying particular targets was investigated by using flow cytometry. Detached cells were incubated with biotinylated peptide/peptidomimetic or biotinylated synthetic compound in blocking buffer for at least 30 min of ice. The cells were washed twice with washing buffer followed by incubation with streptavidin labeled with the Peridinin-chlorophyll protein PerCP-Cy5.5 (BD Biosciences) for 15 minutes on ice. After one additional wash step, samples were analyzed using FACS Canto (at least 10,000 cells per sample were counted) for cells which have bound the biotinylated reagent plus the streptavidin-PerCP-Cy5.5. Overlay histograms of cells incubated with peptide or control peptide were generated and the geometrical mean fluorescence of each sample was determined in FloJo. The EC50 measurements were calculated using Graph Prism software.
Background: Flow cytometry measures light scatter and fluorescence of single cells or particles in a stream.

T1 sequence (P06756 31-1048, chain 1 of 2): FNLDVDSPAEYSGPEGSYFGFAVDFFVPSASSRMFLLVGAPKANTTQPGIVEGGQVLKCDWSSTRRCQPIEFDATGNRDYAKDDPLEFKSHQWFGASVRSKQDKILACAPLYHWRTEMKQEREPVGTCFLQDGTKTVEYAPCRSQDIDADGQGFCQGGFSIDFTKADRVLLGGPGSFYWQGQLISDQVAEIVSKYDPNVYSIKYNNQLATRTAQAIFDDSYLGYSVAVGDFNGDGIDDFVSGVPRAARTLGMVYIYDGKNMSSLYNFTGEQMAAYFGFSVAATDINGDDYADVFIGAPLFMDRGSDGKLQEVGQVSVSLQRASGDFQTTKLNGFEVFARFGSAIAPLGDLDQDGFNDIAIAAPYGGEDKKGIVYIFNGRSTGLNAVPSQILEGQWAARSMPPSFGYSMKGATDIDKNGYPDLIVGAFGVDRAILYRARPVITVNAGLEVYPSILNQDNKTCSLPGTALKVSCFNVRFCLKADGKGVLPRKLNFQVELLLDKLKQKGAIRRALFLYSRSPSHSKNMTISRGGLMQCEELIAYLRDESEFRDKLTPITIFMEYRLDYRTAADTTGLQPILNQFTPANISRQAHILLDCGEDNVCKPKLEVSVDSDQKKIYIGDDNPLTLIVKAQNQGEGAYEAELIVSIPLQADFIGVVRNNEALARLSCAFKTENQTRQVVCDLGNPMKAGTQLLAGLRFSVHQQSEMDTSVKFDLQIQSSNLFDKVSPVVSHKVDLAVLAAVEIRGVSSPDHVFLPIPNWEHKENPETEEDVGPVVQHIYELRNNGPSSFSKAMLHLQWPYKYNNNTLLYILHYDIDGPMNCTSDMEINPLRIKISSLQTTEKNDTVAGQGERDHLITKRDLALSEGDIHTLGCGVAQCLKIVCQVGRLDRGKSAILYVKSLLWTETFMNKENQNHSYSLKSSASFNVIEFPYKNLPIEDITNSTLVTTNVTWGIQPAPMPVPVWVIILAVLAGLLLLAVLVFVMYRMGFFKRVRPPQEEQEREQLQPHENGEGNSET
T1 sequence (P18564 22-788, chain 2 of 2): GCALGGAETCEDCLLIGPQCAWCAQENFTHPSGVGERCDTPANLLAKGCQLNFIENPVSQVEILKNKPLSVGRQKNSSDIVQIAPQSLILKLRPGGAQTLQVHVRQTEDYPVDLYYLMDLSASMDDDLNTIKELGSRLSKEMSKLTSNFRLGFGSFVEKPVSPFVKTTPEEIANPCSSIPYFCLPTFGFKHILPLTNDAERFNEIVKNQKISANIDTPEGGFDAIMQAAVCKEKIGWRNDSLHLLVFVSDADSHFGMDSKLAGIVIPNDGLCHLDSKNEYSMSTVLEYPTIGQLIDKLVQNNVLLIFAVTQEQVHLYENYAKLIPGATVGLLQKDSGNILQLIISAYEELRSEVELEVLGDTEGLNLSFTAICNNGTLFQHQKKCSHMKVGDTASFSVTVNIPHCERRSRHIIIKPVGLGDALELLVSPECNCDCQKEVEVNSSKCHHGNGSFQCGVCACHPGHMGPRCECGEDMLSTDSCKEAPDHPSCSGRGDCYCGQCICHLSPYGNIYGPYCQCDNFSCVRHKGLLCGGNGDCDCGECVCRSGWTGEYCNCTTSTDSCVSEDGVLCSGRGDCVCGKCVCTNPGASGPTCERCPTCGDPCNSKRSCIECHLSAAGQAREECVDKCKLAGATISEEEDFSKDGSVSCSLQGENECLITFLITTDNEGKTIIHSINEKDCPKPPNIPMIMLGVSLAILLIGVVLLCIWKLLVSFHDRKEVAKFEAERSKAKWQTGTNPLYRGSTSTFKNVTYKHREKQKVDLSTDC

B1: biotinylated peptide binder SEQ ID No 2 targeting αvβ6 Integrin (peptide)
peptide: RGDLATLRQL
modifications: also: biotinylated, site not given here
notes: Synthetic peptide, biotinylated for flow cytometry
As to B1, the binding result is listed as “binds”.
